Here are results for one variant from PMC12713080.

The labels stand for the following.
B1: HA‐TAK1 [human] / Flag‐TRAF2 [not stated] (parent)
chain 1: MSTASAASSSSSSSAGEMIEAPSQVLNFEEIDYKEIEVEEVVGRGAFGVVCKAKWRAKDVAIKQIESESERKAFIVELRQLSRVNHPNIVKLYGACLNPVCLVMEYAEGGSLYNVLHGAEPLPYYTAAHAMSWCLQCSQGVAYLHSMQPKALIHRDLKPPNLLLVAGGTVLKICDFGTACDIQTHMTNNKGSAAWMAPEVFEGSNYSEKCDVFSWGIILWEVITRRKPFDEIGGPAFRIMWAVHNGTRPPLIKNLPKPIESLMTRCWSKDPSQRPSMEEIVKIMTHLMRYFPGADEPLQYPCQYSDEGQSNSATSTGSFMDIASTNTSNKSDTNMEQVPATNDTIKRLESKLLKNQAKQQSESGRLSLGASRGSSVESLPPTSEGKRMSADMSEIEARIAATTAYSKPKRGHRKTASFGNILDVPEIVISGNGQPRRRSIQDLTVTGTEPGQVSSRSSSPSVRMITTSGPTSEKPTRSHPWTPDDSTDTNGSDNSIPMAYLTLDHQLQPLAPCPNSKESMAVFEQHCKMAQEYMKVQTEIALLLQRKQELVAELDQDEKDQQNTSRLVQEHKKLLDENKSLSTYYQQCKKQLEVIRSQQQKRQGTS
chain 2: MAAASVTPPGSLELLQPGFSKTLLGTKLEAKYLCSACRNVLRRPFQAQCGHRYCSFCLASILSSGPQNCAACVHEGIYEEGISILESSSAFPDNAARREVESLPAVCPSDGCTWKGTLKEYESCHEGRCPLMLTECPACKGLVRLGEKERHLEHECPERSLSCRHCRAPCCGADVKAHHEVCPKFPLTCDGCGKKKIPREKFQDHVKTCGKCRVPCRFHAIGCLETVEGEKQQEHEVQWLREHLAMLLSSVLEAKPLLGDQSHAGSELLQRCESLEKKTATFENIVCVLNREVERVAMTAEACSRQHRLDQDKIEALSSKVQQLERSIGLKDLAMADLEQKVLEMEASTYDGVFIWKISDFARKRQEAVAGRIPAIFSPAFYTSRYGYKMCLRIYLNGDGTGRGTHLSLFFVVMKGPNDALLRWPFNQKVTLMLLDQNNREHVIDAFRPDVTSSSFQRPVNDMNIASGCPLFCPVSKMEAKNSYVRDDAIFIKAIVDLTGL

In this assay the parent is B1. The experiment in a line: co-immunoprecipitation (anti-HA beads), IB quantified. Particulars: with Flag‐TRAF2; HEK293T cells cotransfected; mean+/-SD, n = 3; read off a plot.
For the variant chain 1 H154A M196A, the response came out at 0.25.
